Target: the molecule itself
Experiment: EMSA supershift, hSIE probe, nuclear extracts of Stat3β-transfected B16 cells
Description: EGF-induced Stat3 binding activity in NIH3T3 (lane 4) was used as a positive control. By supershift analysis with antibody that recognizes Stat3 but not Stat3β or antibody that recognizes Stat3β but not Stat3, it was shown that there were Stat3-Stat3 homodimers in mock-transfected B16 cells and empty vector-transfected B16 cells. Overexpression of Stat3β in Stat3β-transfected B16 cells results in mostly Stat3β-Stat3β homodimer formation.

B1: Stat3β, dominant-negative Stat3 variant (ectopic, from pIRES-Stat3β) (other)
chain: AQWNQLQQLDTRYLEQLHQLYSDSFPMELRQFLAPWIESQDWAYAASKESHATLVFHNLLGEIDQQYSRFLQESNVLYQHNLRRIKQFLQSRYLEKPMEIARIVARCLWEESRLLQTAATAAQQGGQANHPTAAVVTEKQQMLEQHLQDVRKRVQDLEQKMKVVENLQDDFDFNYKTLKSQGDMQDLNGNNQSVTRQKMQQLEQMLTALDQMRRSIVSELAGLLSAMEYVQKTLTDEELADWKRRQQIACIGGPPNICLDRLENWITSLAESQLQTRQQIKKLEELQQKVSYKGDPIVQHRPMLEERIVELFRNLMKSAFVVERQPCMPMHPDRPLVIKTGVQFTTKVRLLVKFPELNYQLKIKVCIDKDSGDVAALRGSRKFNILGTNTKVMNMEESNNGSLSAEFKHLTLREQRCGNGGRANCDASLIVTEELHLITFETEVYHQGLKIDLETHSLPVVVISNICQMPNAWASILWYNMLTNNPKNVNFFTKPPIGTWDQVAEVLSWQFSSTTKRGLSIEQLTTLAEKLLGPGVNYSGCQITWAKFCKENMAGKGFSFWVWLDNIIDLVKKYILALWNEGYIMGFISKERERAILSTKPPGTFLLRFSESSKEGGVTFTWVEKDISGKTQIQSVEPYTKQQLNNMSFAEIIMGYKIMDATNILVSPLVYLYPDIPKEEAFGKYCRPESQEHPEADPGAAPYLKTKFICVTFIDAVWK
notes: ID; NO:3; NO:4'; It was expressed in B16 cells from pIRES-Stat3β and assayed in nuclear extracts; also called Stat3beta; ST3β
binding result: binds
